Measured values: paper doi:10.1101/2021.04.11.439388 (bioRxiv, 2021)

Tests used:
[1] = molecular target: T1, mouse PD-L1-Fc (mouse, UniProt Q9EP73); assay: ELISA
[2] = molecular target: T1, mouse PD-L1-Fc; assay: ELISA; remark: listed apart in the source

T1 sequence (Q9EP73 19-239): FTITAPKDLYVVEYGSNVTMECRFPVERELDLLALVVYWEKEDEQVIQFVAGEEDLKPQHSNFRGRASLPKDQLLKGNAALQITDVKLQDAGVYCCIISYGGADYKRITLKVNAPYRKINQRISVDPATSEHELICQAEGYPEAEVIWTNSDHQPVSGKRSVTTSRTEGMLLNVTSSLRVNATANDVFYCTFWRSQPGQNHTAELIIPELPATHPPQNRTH

IC50 [1]: 6.78 nM
EC50 [2]: 0.516 nM
B1: PD-L1 nanobody Nb16 (VHH linked to an Fc fragment) (VHH)
VHH: QVQLQESGGGSVQAGGSLRLSCAASGYTDRNYWMGWFRQAPGKEREGVAALYTRTGSTYYADSVKGRFTISHDNAKNTLYLQMNSLKPEDTAVYYCAADSNAYGLAPLHHYWGQGTQVTVSS
